Test results as given in PMC2175198.

Biological target: ribosomes (membrane-bound, carrying nascent chains) (S. cerevisiae (endogenous in yeast microsomes))
Test: co-sedimentation

Molecule: Sec61p of the sec61-3 mutant (from UniProt P32915 1-480) (natural protein)
- percent of Sec61p bound to ribosomes (25°C; sec61-3 strain): 30%

B1: Sec61p (natural protein)
chain: MSSNRVLDLFKPFESFLPEVIAPERKVPYNQKLIWTGVSLLIFLILGQIPLYGIVSSETSDPLYWLRAMLASNRGTLLELGVSPIITSSMIFQFLQGTQLLQIRPESKQDRELFQIAQKVCAIILILGQALVVVMTGNYGAPSDLGLPICLLLIFQLMFASLIVMLLDELLSKGYGLGSGISLFTATNIAEQIFWRAFAPTTVNSGRGKEFEGAVIAFFHLLAVRKDKKRALVEAFYRTNLPNMFQVLMTVAIFLFVLYLQGFRYELPIRSTKVRGQIGIYPIKLFYTSNTPIMLQSALTSNIFLISQILFQKYPTNPLIRLIGVWGIRPGTQGPQMALSGLAYYIQPLMSLSEALLDPIKTIVYITFVLGSCAVFSKTWIEISGTSPRDIAKQFKDQGMVINGKRETSIYRELKKIIPTAAAFGGATIGALSVGSDLLGTLGSGASILMATTTIYGYYEAAAKEGGFTKNLVPGFSDLM
- percent of Sec61p bound to ribosomes (25°C; wild-type and srp101-47 strains): 30%
- percent of Sec61p bound to ribosomes (srp101-47 strain, 3 h at 37°C): 20%
